Test results as given in the supplement of paper PMC7125110.
± gives the standard error. Variants at the floor of the assay were thinned out.

B1: glmS ribozyme (parent)
chain: AUAAAAGCGCCAGAACUACAGAAAUGUAGUUGACGAGGAGGAGGUUUAUCGAAUUUUCGGCGGAUGCCUCCAAA

Variants of: B1
Assay: self-cleavage kobs at 10000 uM GlcN6P; higher = faster cleavage; RNA array
Details: with glucosamine-6-phosphate
Summary of the method: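 Ribozyme variants carrying barcodes were transcribed in situ on sequenced MiSeq chips by E. coli RNA polymerase and tracked at 37 °C with a hybridised Cy3 probe. They were exposed to 40 μM to 10 mM glucosamine-6-phosphate in HEPES/KCl/Mg(OAc)2 buffer. kobs came from exponential decay fits of normalised per-tile medians, and kcat and KM from weighted Michaelis–Menten fits.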

AUAAAAGCGCCAGAACUACAGAAAUGUACUUGAUGAGAAGGAGGUUUAUCGAAUUUUCGGCGGAUGCCUCUAAA and AUAAAAGCGCCAGAAGUACAGAAAUGUAGUUGACGAGGAGGAGGUUAAUCGAAUUUUCGGGGGAUGCCUCCAAA cannot be ordered by “self-cleavage kobs at 10000 uM GlcN6P” value: less than 1e-05 s⁻¹ for the first, less than 1e-05 s⁻¹ for the second.

AUAAAAGCGCCAGAACUACAGAAAUGUAGUUGACGAGGAGGAGGCUUAUGGAAAUUUCGGCGGAUGCCUCCAAA and AUAAAAGCGUCAGAACUACAGAAAUGUAGUUGGCCAGGAGGAGGGUUAUCGAAUUUUCGGCGGAUGCUUCCAAA cannot be ordered by “self-cleavage kobs at 10000 uM GlcN6P” value: less than 1e-05 s⁻¹ for the first, less than 1e-05 s⁻¹ for the second.

Compared with AUAAAAGCGCCAGAACUACAGAAAUGUAGUUGACGAGGAGGGGGUUUAUCGAAUUUUAGGCGGAUGUCUCCAAA, AUAAAAGCGCCAGAACUACAGAAAUGUAAUUUACGAGGAGGAGGUUUAUCGAAUUUUCGGCGGAUGCCUACAAA is 2.5-fold lower in “self-cleavage kobs at 10000 uM GlcN6P” value: 0.00012 ± 1.9e-05 s⁻¹ for the first, 4.82e-05 ± 1.8e-05 s⁻¹ for the second.

First: AUAAAAGCGCAAGAACUACAGAAAUGUAGUUGACGAGGAGGAGGAGUAUCGAAUUUUCGGCGGAUGCCUCCAAA
Second: AUAAAAGCGUCAGAACUACAGAAAUGUAGUUGACGAGGAGGCGGUUUAUCGUAUUUUCGGCGGAUGCCUCCAAA
The “self-cleavage kobs at 10000 uM GlcN6P” value of the first is higher: 0.000161 ± 4e-05 s⁻¹ for the first, less than 1e-05 s⁻¹ for the second.

AUAAAAACGCCAGAACUACAGAAAUGUAGAUGACGAGGCGGAGGUUUCUCGAAUUUUCGGCGGAUGCCUCCAAA and AUAAAAGGUCCAGAACUACAGAAAUGUAGUUGACGAGGAGGAGGUUUAUCGAAUUUUCGGCGGAUCCGUCCAAA cannot be ordered by “self-cleavage kobs at 10000 uM GlcN6P” value: less than 1e-05 s⁻¹ for the first, less than 1e-05 s⁻¹ for the second.

AUAAAAGCGCCAGGAAUACAGAAAUGUAGUUGACGAGGACGAGGUUUAUCGAAUUUUCGGCGUAUGCCUCCAAA and AUAAAAGCGCCAGAUCUACAGAAAUGUAGUUGCCGAGGAGGAGGUUUAUCGAAUUUUAGGCGGAUGCAUCCAAA cannot be ordered by “self-cleavage kobs at 10000 uM GlcN6P” value: less than 1e-05 s⁻¹ for the first, less than 1e-05 s⁻¹ for the second.

AUAAAAGCGCCAGAACUACAGAAAUGUAGUUGGCGAAGAGGAGGUUUAUCGAAUUUUCGGCGGAUGCCGCCAAA and AUAAAAGCGCCAGAACUACAGAAAUGUAGUUGACGAGAAGGAGGUUUAUCGAAUUUCCGGCGGUUGCCUCCAAA cannot be ordered by “self-cleavage kobs at 10000 uM GlcN6P” value: less than 1e-05 s⁻¹ for the first, less than 1e-05 s⁻¹ for the second.

AUAAAAGCGCCAGAACUACAGAAAUGUAGUUGACGAGGAGGAAGUUUAUAGAAUUUUCGGCGGUUGCCUCCAAA and AUAAAAGCGCCAGUACUACAGAAAUGUAGUUGACGCGGAGGAGGUUUGUCGAAUUUUCGGUGGAUGCCUCCAAA cannot be ordered by “self-cleavage kobs at 10000 uM GlcN6P” value: less than 1e-05 s⁻¹ for the first, less than 1e-05 s⁻¹ for the second.

AUAAAAGAGCCAGUGCUACAGAAAUGUAAUUGACGAGGAGGAGGUUUAUCGAAUUUUCGGCGGAUGCCUCCAAA and AUAAAAGCUCCAGAACUACAGAAAUGUAGUUGACGAGGAGUAGGUUUAUCGAAUUUUAGCCGGAUGCCUCCAAA cannot be ordered by “self-cleavage kobs at 10000 uM GlcN6P” value: less than 1e-05 s⁻¹ for the first, less than 1e-05 s⁻¹ for the second.

Compared with AUAAAAGCGCCUGAACUACAGAAAUGUAGUUGACGAGGAGGAGGUUUAUCGAAUUUUCAGCGGAUGGCUCCAAA, AUAAAAGCGCCAGAUCUACAUAAAUGUAGUUGACGAGGAGGAGGUUUAUCGAAUUUUCGGCGGAUGCCUCCAAA is 95-fold higher in “self-cleavage kobs at 10000 uM GlcN6P” value: 4.16e-05 ± 1.6e-05 s⁻¹ for the first, 0.00395 ± 0.00079 s⁻¹ for the second.

AUAAAAGCGCCAGAACUACAGAAAUGUAGUAGAUGAGGAGGAGAUUUAUCGAAUUUUCGGCGGAUGCCUCCAAA and AUAAAGGCGACAGAACUACAGAAAUGUAGCUGACGAGGAGGAGGUUUAACGAAUUUUCGGCGGAUGCCUCCAAA cannot be ordered by “self-cleavage kobs at 10000 uM GlcN6P” value: less than 1e-05 s⁻¹ for the first, less than 1e-05 s⁻¹ for the second.

First: AUAAAAGCGCUAGAACUACAGAAAUGUAGUGGACGAGGAGGAGGUUUAUCGAAAUUUCGGCGGAUGCCUCCAAA
Second: AUAAAAGCGCCGGAACUACAGAAAUGUAGUUGACGAGGAGGAGGUUUAUCGAAUUUUAGGCGGAUGCCUCAAAA
The “self-cleavage kobs at 10000 uM GlcN6P” value of the first is 50-fold higher: 0.0029 ± 0.0008 s⁻¹ for the first, 5.83e-05 ± 1.4e-05 s⁻¹ for the second.

Compared with AUAAAAGCGGCAGUAAUACAGAAAUGUAGUUGACGAGGAGGAGGUUUAUCGAAGUUUCGGUUGAUGCCUCCAAA, AUAAAAGCGCUAGAGCUACAGAAAUGUAGUUGACGAGGAGGAGGUUUAUCGGAUUUUCGGCGGAUGCCUCCAAA is higher in “self-cleavage kobs at 10000 uM GlcN6P” value: less than 1e-05 s⁻¹ for the first, 0.0001 ± 2.4e-05 s⁻¹ for the second.

First: AUAAAAGCGCCAGAUCUACAGAAAUGUAGUUUACGAGGAGGAGGUUUAUCGAAAUUUCGGCGGAUGCCUCCAAA
Second: AUAAAAGCGCCAAAACUACAGAAAUGUAGUUGACGAGGAGGAGGUUUAUCUAAUUUUCGUCGGAUGCCUCCAAA
The “self-cleavage kobs at 10000 uM GlcN6P” value of the first is higher: 0.00058 ± 0.00013 s⁻¹ for the first, less than 1e-05 s⁻¹ for the second.

First: AUAAAAGCGCCAGAAUUACAGAAAUGUACUUGACUAGGGGGAGGUUUAUCGAAUUUUCGGCGGAUGCCUCCAAA
Second: AUAAAUGCGCCUGAACUACAGAAAUGUAGUUGACGAGGAGGAGGUUUAUCGAAUUUUCGGCGGGUGCCUCCAAA
The “self-cleavage kobs at 10000 uM GlcN6P” value of the first is lower: less than 1e-05 s⁻¹ for the first, 0.000171 ± 4.1e-05 s⁻¹ for the second.

First: AUAAAAGCGCUAGAGCUACAGAAAUGUAGUUGACGAGGAGGAGGUUUAUCGAAUUUUGGGCGGAUGCUUCCAAA
Second: AUAAAAGCGCCUGAAUUACAGAAAUGUAGUUGACGAGGAGGGGGUUUAUCGAAUUUUCGGCGGAUGCCUCCAAA
The “self-cleavage kobs at 10000 uM GlcN6P” value of the first is 720-fold lower: 0.000112 ± 2.5e-05 s⁻¹ for the first, 0.0803 ± 0.038 s⁻¹ for the second.

AUAAACGCGCCAGAACUACAGAAAUGUAGUUGACGAGGAGGAGGUUUAUAGAAUGUUCGGCGGAUGCCUCCAAA and AUAAAAGCGCCAGAACUACAGAAAUGUAGUUGACGAGGAGGAGGUUUAUCGAAUUUUUCGGCGGAUCCUCCAAA cannot be ordered by “self-cleavage kobs at 10000 uM GlcN6P” value: less than 1e-05 s⁻¹ for the first, less than 1e-05 s⁻¹ for the second.

AUAAAAGCGCCAGAAGUACAGAAAUGUAGUUGACGACGAGGAGGUUUAUCGAAUUUUCGGCAGAUGCCUCCAAA and AUAAACGCGCCAGAAUUACAGAAAUGUACUUGACGAGGAGGAGGUUUAUCGAAUUUUAGGCGGAUGCCUCCAAA cannot be ordered by “self-cleavage kobs at 10000 uM GlcN6P” value: less than 1e-05 s⁻¹ for the first, less than 1e-05 s⁻¹ for the second.

With AUAAAAACGCCACAACUACAGAAAUGUAGUUGACGAGGAGGAGGUUUAUCGAAUUUUCGACGGAUGCCUCCAAA the “self-cleavage kobs at 10000 uM GlcN6P” value was less than 1e-05 s⁻¹.
